Data on two substances can be found in US20220025060A1.

Like-named read-outs stand apart in the source and are kept apart here.

Experiment [1] deals with His-tagged human CD40 (h-CD40-his) recombinant protein (human) (UniProt P25942). Kind of experiment: ELISA, human CD40-his coated.
Experiment [2] shares this target. Kind of experiment: ELISA, human CD40-his coated. The source holds these as a separate data set.
Experiment [3] deals with His-tagged rhesus monkey CD40 (rhesus-CD40-his) recombinant protein (rhesus monkey) (UniProt F6SNI1). Kind of experiment: ELISA, Rhesus CD40-his coated. Background: ELISA stands for enzyme-linked immunosorbent assay.
Experiment [4] deals with human CD40 on HEK-Blue CD40L cells (HEK293 cells stably transfected with human CD40 gene) (human) (UniProt P25942). Kind of experiment: HEK293-CD40 cell-binding (so in the source).
human CD40 on HEK-Blue CD40L cells (HEK293 cells stably transfected with human CD40 gene) (human), sequence (P25942 21-277): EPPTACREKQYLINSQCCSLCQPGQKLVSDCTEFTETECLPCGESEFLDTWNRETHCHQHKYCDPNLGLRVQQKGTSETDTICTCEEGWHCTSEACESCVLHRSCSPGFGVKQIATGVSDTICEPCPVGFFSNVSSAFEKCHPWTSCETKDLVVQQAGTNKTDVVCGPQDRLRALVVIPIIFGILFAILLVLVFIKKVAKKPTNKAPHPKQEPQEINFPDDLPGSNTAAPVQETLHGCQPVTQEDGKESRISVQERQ
For experiment [5] the target is unchanged. Briefly: HEK293-CD40 cell-binding (so in the source). This is another data set of the same source.
In experiment [6] the target is Fc-tagged human CD40 (h-CD40-Fc) recombinant protein (human) (UniProt P25942). Briefly: hCD40/hCD40L blocking ELISA, competitor CD40L-his.
Fc-tagged human CD40 (h-CD40-Fc) recombinant protein (human), sequence (P25942 21-193 limits assumed): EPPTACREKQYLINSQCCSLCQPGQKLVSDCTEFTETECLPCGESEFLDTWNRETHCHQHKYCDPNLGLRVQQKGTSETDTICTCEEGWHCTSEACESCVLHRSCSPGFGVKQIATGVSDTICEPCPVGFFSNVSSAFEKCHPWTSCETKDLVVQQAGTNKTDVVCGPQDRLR
Experiment [7] has the same target. Kind of experiment: hCD40/hCD40L blocking ELISA, competitor CD40L-his. This is another data set of the same source.
The target in experiment [8] is His-tagged human CD40 (h-CD40-his) recombinant protein (human) (UniProt P25942). Kind of experiment: Biacore SPR, antibody captured by anti-human antibody, CD40 antigen as analyte, 1:1 model.

His-tagged human CD40 (h-CD40-his) recombinant protein (human), sequence (P25942 21-193 limits assumed): as above
Pfizer control (hIgG4) (antibody), sequence (VH): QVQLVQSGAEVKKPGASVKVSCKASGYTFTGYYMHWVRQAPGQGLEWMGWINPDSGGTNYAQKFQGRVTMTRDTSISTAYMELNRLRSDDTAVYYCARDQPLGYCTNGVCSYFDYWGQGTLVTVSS
Pfizer control (hIgG4) (antibody), sequence (VL): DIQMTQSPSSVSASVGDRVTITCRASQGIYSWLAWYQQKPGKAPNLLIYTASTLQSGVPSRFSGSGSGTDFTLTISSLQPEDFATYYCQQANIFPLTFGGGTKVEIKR

On to Alligator control (hIgG1) (antibody), for which the EC50 (as a rule, the midpoint of the concentration-response curve) in experiment [1] was found to be 3.29 ng/mL; in experiment [2], 1.29 ng/mL; in experiment [3] it was 1.24 ng/mL; in experiment [4] it was 396 ng/mL; in experiment [5] it was 1360 ng/mL. Further, the IC50 (in general, the concentration that gives 50% inhibition) was found to be 723 ng/mL in experiment [6] and 647 ng/mL in experiment [7]. Moreover, the Kd (as a rule, a measure of binding affinity in units of concentration) in experiment [8] was 166 nM.
For Pfizer control (hIgG4) (antibody), the EC50 in experiment [1] came to 5.63 ng/mL; in experiment [2], 3.98 ng/mL; in experiment [3], 3.56 ng/mL. In addition, the dissociation constant (Kd) in experiment [8] is 20.4 nM.
